Where two headings read alike, the source gives them in different places. Blank lines part the entries; values can stand above or below the compound they belong to. Numbered stars: 1 amine (or outer) side, 2 acyl side, 3 side chain; on linkers, the order of the positions; unused ones are H or OH. Bridge positions count the residues as written; N and C are the ends. Square brackets hold non-standard residues; d marks the D form. Triazole bridges read from a SMILES are 1,4-linked. Side chains are listed from the residue outwards. Peptide text beside a SMILES is read from it. * marks the point of attachment. DOTA = O=C(O)CN1CCN(CC(=O)O)CCN(CC(=O)*)CCN(CC(=O)O)CC1; Pteroyl = Nc1nc2ncc(CNc3ccc(C(=O)*)cc3)nc2c(=O)[nH]1; Biotin = O=C1N[C@H]2[C@H](CS[C@H]2CCCCC(=O)*)N1; PEG10 = NCCOCCOCCOCCOCCOCCOCCOCCOCCOCCOCCC(=O)O; Butanoyl(4-(4-MePh)) = Cc1ccc(CCCC(=O)*)cc1; Lys(N3) = [N-]=[N+]=NCCCC[C@H](N)C(=O)O; γGlu = O=C(O)[C@H](CCC(=O)[*:2])N[*:1]; AEEEA = NCCOCCOCCOCC(=O)O; Pra = C#CC[C@H](N)C(=O)O
Columns and labels:
FOLR1 = molecular target: T1, FOLR1 (Homo sapiens, UniProt P15328); test: ELISA assay of FOLR1 binding
T1 construct: His; purchased SinoBiological 11241-H08H
T1 sequence (P15328 25-234): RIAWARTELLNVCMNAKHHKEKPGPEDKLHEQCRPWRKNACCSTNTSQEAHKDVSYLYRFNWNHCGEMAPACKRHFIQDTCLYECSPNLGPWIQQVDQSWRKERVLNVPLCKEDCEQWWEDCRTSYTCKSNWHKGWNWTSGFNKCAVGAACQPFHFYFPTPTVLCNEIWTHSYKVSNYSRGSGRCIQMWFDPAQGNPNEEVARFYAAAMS
Description: FIG. 5 is a diagram of ELISA assay of FOLR1 binding of heterobiligands.
Nonclinical studies were first conducted with Folate-hshta-PEG10-PEG10-K(Biotin), where Folate-hshta is the targeting heterobiligand, PEG10 is a deca(ethylene glycol) linker, and K(Biotin) is the detection label.

OVCAR3 xenografts = test: 177Lu FOLR1 radioligand therapy in OVCAR3 xenograft model; type: in vivo, mouse; details: for body weight change: single dose
Procedure: Water and food were provided ad libitum. […] Tumor growth was monitored by caliper measurements.
OVCAR3 tumor bearing mice were used to study FOLR1-directed radioligand therapy (RLT) for treatment of ovarian cancer. Animals were administered a single dose of heterobiligand (vehicle control) or 111, 37, 18.5, 9.25, or 3.7 MBq [^177Lu]DOTA-labeled heterobiligand. Mice received the dose intravenously (i.v.) via the tail vein. To monitor the effect of the RLT, tumor size measurements were taken twice weekly and body weights were measured.
The engraftment was allowed to expand until palpable tumor sizes ranging in size from 218-384 mm^3 were detected. […] These observed effects were consistant with radiation overdosing. […] The best response was observed using 9.25 MBq Lu-177 Heterobiligand (compound #2809).
Single dose treatments at 18.5 MBq/nmol specific activity. OVCAR3 mouse model was used. 10^7 cell tumors were implanted in the mice one month before administration of ^177Lu-#6305. Five mice each were administered Cold #6305, 9.25 MBq Lu177-#6305, and 14.8 MBq Lu177-#6305, and two mice were administered 29.6 MBq Lu177-#6305. Tumor growth and body weight were then monitored.
Female NSG mice were implanted subcutaneously with OVCAR3 cells. Once tumors reached volumes of 200 mm^3, the animals were treated with 177-Lu 7327. Three treatment arms of 9.25 MBq, 14.8 MBq, and 29.6 MBq were studied.
Female NSG mice were implanted subcutaneously with human OVCAR3 (FOLR+) ovarian cancer cells. Once tumors reached volumes of 200 mm^3, the animals were treated with Indi ^177Lu-7327. One treatment arm of 74 MBq and a control group of 0 MBq were studied (FIGS. 41 and 38A). […] The second dose was administered 21 days following the first dose. Statistically significant differential between treated and control was reached 24 days post-injection (three days following the second dose) for the 74 MBq arm. P values (* for p≤0.05, ** for p≤0.01) were determined by ordinary one-way ANOVA with Tukey's multiple comparisons test.

[1] = Maximum tolerated dose / tolerability study
Procedure: Animals were monitored for signs of toxicity and weighed twice weekly. […] The second and third doses were administered 21 days following the previous dose.
Two separate MTD experiments were undertaken. […] A second experiment interrogated lower doses.
Mouse body weight and behavior were monitored. […] The second and third doses were administered 21 days following the previous dose.

[2] = Gamma counting of tissue radioactivity; type: in vivo, mouse; details: for kidney radioactivity / liver radioactivity / tumor radioactivity: Day 28 post-injection
Description: 7 days after Lu177-#6305 injection, the 29.6 MBq group lost 20% body weight. These mice were sacrificed. Tissues and plasma were collected for evaluation of radioactivity by gamma counting. The toxicity may have resulted from its accumulation in the kidneys and liver (FIG. 28). At study endpoint (Day 28 post-injection), plasma, tumors, kidneys, lungs, hearts, livers, and muscles from 9.25 MBq and 14.8 MBq treatment groups were collected for evaluation of radioactivity by gamma counting (FIG. 29).

[3] = albumin binder / DOTA tagged biotin-labeled heterobiligands, read-out: EC50
[4] = 29.6 MBq group, Day 7 post-injection

EC50 (FOLR1; [3]): 110 pM
SMILES: Cc1ccc(CCCC(=O)NCCCC[C@H](NC(=O)COCCOCCOCCNC(=O)[C@@H]2CCCCn3cc(nn3)C[C@H](NC(=O)CC[C@H](NC(=O)c3ccc(NCc4cnc5nc(N)[nH]c(=O)c5n4)cc3)C(=O)O)C(=O)N[C@H](Cc3c[nH]cn3)C(=O)N[C@H](CO)C(=O)N[C@H](Cc3c[nH]cn3)C(=O)N[C@H]([C@H](C)O)C(=O)N[C@H](C)C(=O)N2)C(=O)NCCOCCOCCOCCOCCOCCOCCOCCOCCOCCOCCC(=O)NCCOCCOCCOCCOCCOCCOCCOCCOCCOCCOCCC(=O)N[C@@H](CCCCNC(=O)CCCC[C@@H]2SC[C@@H]3NC(=O)N[C@@H]32)C(N)=O)cc1 [Folate-hshta-MPBA] ({Pteroyl-γGlu}-[Pra][dH][dS][dH][dT][dA][Lys(N3)][AEEEA]K(Butanoyl(4-(4-MePh)))[PEG10][PEG10]K(Biotin)-NH2; triazole 1-7)

EC50 (FOLR1; [3]): 98 pM
SMILES: C[C@H](O)[C@H]1NC(=O)[C@@H](Cc2c[nH]cn2)NC(=O)[C@@H](CO)NC(=O)[C@@H](Cc2c[nH]cn2)NC(=O)[C@@H](NC(=O)CC[C@H](NC(=O)c2ccc(NCc3cnc4nc(N)[nH]c(=O)c4n3)cc2)C(=O)O)Cc2cn(nn2)CCCC[C@@H](C(=O)NCCOCCOCCOCC(=O)N[C@@H](CCCCNC(=O)CN2CCN(CC(=O)O)CCN(CC(=O)O)CCN(CC(=O)O)CC2)C(=O)NCCOCCOCCOCCOCCOCCOCCOCCOCCOCCOCCC(=O)NCCOCCOCCOCCOCCOCCOCCOCCOCCOCCOCCC(=O)N[C@@H](CCCCNC(=O)CCCC[C@@H]2SC[C@@H]3NC(=O)N[C@@H]32)C(N)=O)NC(=O)[C@@H](C)NC1=O [Folate-hshta-DOTA] ({Pteroyl-γGlu}-[Pra][dH][dS][dH][dT][dA][Lys(N3)][AEEEA]K(DOTA)[PEG10][PEG10]K(Biotin)-NH2; triazole 1-7)

SMILES: C[C@H](O)[C@H]1NC(=O)[C@@H](Cc2cnc[nH]2)NC(=O)[C@@H](CO)NC(=O)[C@@H](Cc2cnc[nH]2)NC(=O)[C@@H](NC(=O)CC[C@H](NC(=O)c2ccc(NCc3cnc4nc(N)[nH]c(=O)c4n3)cc2)C(=O)O)Cc2cn(nn2)CCCC[C@@H](C(=O)NCC(=O)N[C@@H](Cc2ccccc2)C(=O)N[C@@H](CCCCNC(=O)CN2CCN(CC(=O)O)CCN(CC(=O)O)CCN(CC(=O)O)CC2)C(=O)O)NC(=O)[C@@H](C)NC1=O [Indi ^177Lu-7327, Folate-hshta-G-F-K(^177Lu-DOTA)-OH, metal not drawn] ({Pteroyl-γGlu}-[Pra][dH][dS][dH][dT][dA][Lys(N3)]GFK(DOTA)-OH; triazole 1-7)
loss of body weight (OVCAR3 xenografts; 29.6 MBq, after second dose): 5-10%
body weight (OVCAR3 xenografts; highest dose (29.6 MBq), after second dose): modest loss of body weight
body weights of treated mice (OVCAR3 xenografts; mouse, in vivo): normal body weights (+/−10%)
tolerability of first dose (OVCAR3 xenografts; mouse, in vivo): well tolerated
radioactive dose tolerated, three treatments ([1]; healthy, non-tumor bearing female NSG mice): up to 111 MBq

SMILES: C[C@H](O)[C@H]1NC(=O)[C@@H](Cc2ccc(O)cc2)NC(=O)[C@@H](CCCNC(=N)N)NC(=O)[C@@H](CCC(=O)O)NC(=O)[C@@H](CC(=O)O)NC(=O)[C@@H](NC(=O)[C@H](CCCCNC(=O)COCCOCCOCCNC(=O)CC[C@H](NC(=O)c2ccc(NCc3cnc4nc(N)[nH]c(=O)c4n3)cc2)C(=O)O)NC(=O)CCOCCOCCOCCOCCOCCOCCOCCOCCOCCOCCNC(=O)CCOCCOCCOCCOCCOCCOCCOCCOCCOCCOCCNC(=O)CCCC[C@@H]2SC[C@@H]3NC(=O)N[C@@H]32)Cc2cn(nn2)CCCC[C@@H](C(N)=O)NC1=O [Lys (PEG3 -Folate)-deryt] ({Biotin-PEG10-PEG10}-K([AEEEA-γGlu-Pteroyl])[Pra][dD][dE][dR][dY][dT][Lys(N3)]-NH2; triazole 2-8)
EC50 (FOLR1; EC50, deryt heterobiligands, ELISA): 160 pM

SMILES: Cc1ccc(CCCC(=O)NCCCC[C@H](NC(=O)[C@@H]2CCCCn3cc(nn3)C[C@H](NC(=O)CC[C@H](NC(=O)c3ccc(NCc4cnc5nc(N)[nH]c(=O)c5n4)cc3)C(=O)O)C(=O)N[C@H](Cc3c[nH]cn3)C(=O)N[C@H](CO)C(=O)N[C@H](Cc3c[nH]cn3)C(=O)N[C@H]([C@H](C)O)C(=O)N[C@H](C)C(=O)N2)C(=O)NCC(=O)N[C@@H](Cc2ccccc2)C(=O)N[C@@H](CCCCNC(=O)CN2CCN(CC(=O)O)CCN(CC(=O)O)CCN(CC(=O)O)CC2)C(=O)O)cc1 [^177Lu-#6305, metal not drawn] ({Pteroyl-γGlu}-[Pra][dH][dS][dH][dT][dA][Lys(N3)]K(Butanoyl(4-(4-MePh)))GFK(DOTA)-OH; triazole 1-7)
body weight change (OVCAR3 xenografts; 9.25 MBq and 14.8 MBq): No significant body weight change
body weight loss (OVCAR3 xenografts; 29.6 MBq, 7 days after injection): 20%
body weight change (OVCAR3 xenografts; 29.6 MBq): substantial body weight decrease
body weight ([1]; doses of 29.6, 37, 111 and 185 MBq, first dose): weight loss after the first dose
tolerability of second dose ([1]; second dose 7 days after the first (29.6-185 MBq)): not tolerated
tolerability of second dose ([1]; second dose administered 21 days (14.8-22.2 MBq)): not tolerated
body weight ([1]; single dose of 14.8, 18.5 and 22.2 MBq): only minimal loss in body weight
kidney radioactivity ([2]; 9.25 MBq group): 414 CPM/g
liver radioactivity ([2]; 9.25 MBq group): 685 CPM/g
tumor radioactivity ([2]; 9.25 MBq group): 33 CPM/g
liver/kidney ratio ([2]; 14.8 MBq group on Day 28): 1.94
kidney radioactivity ([2]; 14.8 MBq group): 653 CPM/g
liver radioactivity ([2]; 14.8 MBq group): 1,264 CPM/g
tumor radioactivity ([2]; 14.8 MBq group): 60 CPM/g
liver/kidney ratio ([2]; 29.6 MBq group on Day 7): 0.27
radioactivity in the kidney [2, 4]: 394,834 CPM/g
radioactivity in the liver [2, 4]: 107,374 CPM/g
radioactivity in the tumor [2, 4]: 42,674 CPM/g
tissue to tissue ratio at 672 h ([2]; mouse, tumor and kidney, total radioactivity, 14.8 MBq group, Day 28): 0.093
tissue to tissue ratio at 168 h ([2]; mouse, tumor and kidney, total radioactivity, 29.6 MBq group, Day 7): 0.108
